# Laboratory results: patent US20240240189A1, “CANCER TREATMENT BY TARGETING PROTEINS OR INTERACTIONS OF EPHRINB-RGS3-KIF20A-SEPT7 AXIS” (CITY OF HOPE, priority 2021, published 2024)
# “Also recorded” adds a separate entry of the source.
# Assays:
# human KIF20A transcript = test: shRNA screening by dual luciferase reporter assay; format: cell-based; conditions: transfected HEK293 cells, shRNA in pNUT vector, cDNA target in psi-CHECK, 48 hours
# Protocol: FIGS. 10a-10c show generation of human KIF20A shRNAs and stable Daoy cell lines. […] Candidate shRNAs in pNUT vector were first screened with a cDNA target cloned in psi-CHECK vector in transfected HEK293 cells, using a dual luciferase reporter assay and their cDNA target in psi-CHECK Vector (Promega). Six candidate shKIF20As were tested with this assay. […] Data are mean±S.D. **P<0.01, ***P<0.001 (two-way ANOVA).
# DNA Constructs, Lentivirus Production: Lentiviral transfer plasmids used in this study include: Hiv7CMV-Cre-myc-2A-GFP (Addgene #117148), Hiv7CMV-GFP, Hiv7CMV-GFP-IRES-Luciferase, as well as Tet-on inducible shRNA plasmids Tet-pLKO-hushKIF20A726 or Tet-pLKO-hushKIF20A181-Puro (shRNA sequences were cloned into pLKO-Tet-On plasmid, Addgene #21915 at Agel/EcoRI sites). […]
# shRNA design and screening: Potential shRNA sequences were selected using web-based design tool (rnaidesigner.thermofisher.com/rnaiexpress/design.do). shRNAs were expressed under the control of a mouse U6 promoter in pNUTs vector which additionally contains a ubiquitin promoter-EGFP expression cassette. Candidate shRNAs in pNUTs and cDNA target in psi-CHECK were co-transfected into HEK293 cells in triplicates; 48 hours later, the firefly and Renilla Luciferase values were determined with Promega's Dual-Luciferase® Reporter Assay System (Promega, E1910). […]
# Daoy human MB cells = test: Growth assay of Daoy cells; format: cell-based; conditions: parental Daoy cells with or without doxycycline
# Protocol: Generation of Daoy cell lines with stably integrated Tet-on inducible shRNA expression system: Daoy cells were infected with lentivirus of Tet-on inducible human KIF20A shRNA-726 and GFP-Luciferase prepared from Tet-pLKO-hushKIF20A726 plasmid and Hiv7CMVGFP-IRES-Luciferase plasmid, respectively. The transduced Daoy cells were selected for stable single clones with Puromycin (1 μg/ml, Sigma-Aldrich) and GFP fluorescence signal in DMEM (Invitrogen) with 10% fetal bovine serum. Single clones were picked up by glass cloning cylinders (Sigma-Aldrich) in 10 cm plate.
# Growth Assay of tumor cells: Mouse MB cell lines, or Daoy clones stably integrated with Tet-on inducible human KIF20A shRNA-726, or Wild Type Daoy cells, were seeded into multiple wells of 24 well plates (2×10^4 or 1×10^4 cells per well). Cells in quadruplicate were then dissociated and counted using a hemocytometer at consecutive days after initial plating.
# [1] = test system: neural progenitor cells (NPCs); test: In utero electroporation over-expression in the mouse cortex; format: in vivo; conditions: expression plasmid delivered at E13.5 via IUE, brains collected at E15.5
# Description: Expression plasmid of GFP, RBD (RGS-binding domain of mouse KIF20A), or RGS was delivered into the cortices at E13.5 via in utero electroporation (IUE). Brains were collected at E15.5 for analyses. Distribution of transfected cells (GFP+) across the radial domains were scored. […] VZ, ventricular zone; IZ, intermediate zone; CP, cortical plate. Green and blue asterisks indicate P<0.01 (Student's t-test) for CP and SVZ/VZ distributions, respectively.
# RGS3-KIF20A interaction is mediated by the RGS domain of RGS3 and the RGS-binding domain (RBD) of KIF20A which is located to amino acids 625-818 of mouse KIF20A sequence (FIG. 13a)^9. […] In this experiment, expression plasmid of GFP, RBD (RGS-binding domain of KIF20A), or RGS was delivered into the cortices at E13.5 via IUE. Brains were collected at E15.5 for analyses. Distribution of transfected cells (GFP+) across the radial domains were scored.
# GISC017 cells = test: Cell cycle exit analysis (EdU/Ki67) in GISC017 cells; format: cell-based, human; conditions: lentiviral expression of RBD
# Description: To further investigate the relevance of KIF20A in human brain tumors, inhibition of KIF20A in patient-derived GBM-initiating/stem cells (GISCs) was examined. As the ERKS axis functions in different types of brain tumor-initiating/stem cells, data obtained from study of GISCs would be applicable to other brain tumor cell types. Multiple lines of patient-derived GISCs were obtained from Dr. Christine Brown. These low passaged GISCs could be expanded in cultures and could engraft in NSG mice^43, 44. FIG. 11 summarizes the results of testing KIF20A in one GISC line (GISC017) by constitutive expression of a control scrambled shRNA or shKIF20A726 (shRNA targeting hKIF20A) in pNUT vector-based lentiviral expression system. […] In the above cell cycle exit analysis, co-staining of differentiation markers (e.g. βlll-tubulin, DCX, or NeuN) was performed, however, these markers were detected in EdU^+Ki67^− (cells having left the cell cycle) but also in some EdU^+Ki67^+ (cells staying in the cell cycle) cells, which might reflect a technical artefact observed with progenitor/stem cells in culture. […]
# RGS3-KIF20A interaction = target: T1, RGS3-KIF20A interaction (Mus musculus, UniProt Q9DC04); test: GST-RGS pulldown experiment; format: binding; conditions: expression of RBD, GST-RGS pull down
# T1 construct: mediated by the RGS domain of RGS3
# SEPT7 = target: T2, SEPT7 (Mus musculus, UniProt O55131); conditions: cited from earlier work
# T2 sequence (O55131 1-436): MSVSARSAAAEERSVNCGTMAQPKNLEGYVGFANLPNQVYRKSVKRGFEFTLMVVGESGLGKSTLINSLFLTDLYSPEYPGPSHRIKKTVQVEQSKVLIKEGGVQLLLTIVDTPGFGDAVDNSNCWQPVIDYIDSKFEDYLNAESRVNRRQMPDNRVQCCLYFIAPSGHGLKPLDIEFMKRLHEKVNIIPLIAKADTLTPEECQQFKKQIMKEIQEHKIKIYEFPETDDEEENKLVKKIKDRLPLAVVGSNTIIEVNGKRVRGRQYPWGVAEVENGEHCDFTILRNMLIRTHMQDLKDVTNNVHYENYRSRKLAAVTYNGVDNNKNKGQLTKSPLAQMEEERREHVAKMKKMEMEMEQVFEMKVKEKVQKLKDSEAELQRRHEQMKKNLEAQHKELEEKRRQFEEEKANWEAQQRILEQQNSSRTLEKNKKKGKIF
# T1 sequence (Q9DC04 841-966 limits assumed): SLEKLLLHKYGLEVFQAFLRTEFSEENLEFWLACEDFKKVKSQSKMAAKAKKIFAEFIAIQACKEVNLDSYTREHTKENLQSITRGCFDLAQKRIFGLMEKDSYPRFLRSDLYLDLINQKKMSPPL
molecule,measurement,setting,value
"5′-AGTATGGAGAAGGTGAAAG-TTCAAGAGA-CTTTCACCTTCTCCATACT-3′ (AGTATGGAGAAGGTGAAAGTTCAAGAGACTTTCACCTTCTCCATACT; expressed or natural sequence) [shKIF20A181, shRNA targeting human KIF20A transcript]",inhibition of expression of the human KIF20A transcript (luciferase assay),human KIF20A transcript,significantly inhibit expression of the human KIF20A transcript
"C[C@H]1c2cccc(O)c2C(=O)C2=C(O)[C@]3(O)C(=O)C(C(N)=O)=C(O)[C@@H](N(C)C)[C@@H]3[C@@H](O)[C@@H]21 [doxycycline, reference compound]",growth of parental Daoy cells (cytotoxicity of doxycycline),Daoy human MB cells,not affected
"RBD: RGS-binding domain of KIF20A, amino acids 625-818 of mouse KIF20A sequence; competitive inhibitor for RGS3-KIF20A interaction (protein, left off: small tags and cut ends) LKILKESLTTFYQEQIQERDEKIEELETLLQEAKQQPAAQQSGGLSLLRRSQRLAASASTQQFQEVKAELEQCKTELSSTTAELHKYQQVLKPPPPAKPFTIDVDKKLEEGQKNIRLLRTELQKLGQSLQSAERACCHSTGAGKLRQALTNCDDILIKQNQTLAELQNNMVLVKLDLQKKAACIAEQYHTVLKL",neuronal differentiation of neural progenitor cells,[1],caused precocious neuronal differentiation of the affected NPCs; also recorded: caused neural progenitor cell differentiation and subsequent outward migration of newly born neurons into the IZ and CP regions
same,neuronal differentiation of neural progenitor cells,[1]; listed as KIF20A625-818,cause neuronal differentiation
same,cell cycle exit,GISC017 cells,induce cell cycle exit; also recorded: caused cell cycle exit
same,inhibition of binding of GST-RGS and KIF20A,RGS3-KIF20A interaction,inhibited binding between RGS3 and mouse KIF20A
same,inhibition of binding of GST-RGS and KIF20A,RGS3-KIF20A interaction; listed as Flag-RBD,inhibited binding of GST-RGS and KIF20A in a dose dependent manner
same,inhibition of binding of GST-RGS and KIF20A,RGS3-KIF20A interaction; listed as KIF20A625-818,block interaction between KIF20A and RGS3
same,interaction with SEPT7,SEPT7,interacts with SEPT7
